Assay [1] addresses T1, Recombinant human Dkk-1 (R&D Systems cat no. 1096-DK/CF), 10xHis tag at the C terminal (human, UniProt O94907 32-266).
T1 construct: the actual N-terminus of the purified protein is marked in bold italic after residue 30, but the mark is an image lost in the text; also called rhuDkk-1; hDkk-1
T1 sequence: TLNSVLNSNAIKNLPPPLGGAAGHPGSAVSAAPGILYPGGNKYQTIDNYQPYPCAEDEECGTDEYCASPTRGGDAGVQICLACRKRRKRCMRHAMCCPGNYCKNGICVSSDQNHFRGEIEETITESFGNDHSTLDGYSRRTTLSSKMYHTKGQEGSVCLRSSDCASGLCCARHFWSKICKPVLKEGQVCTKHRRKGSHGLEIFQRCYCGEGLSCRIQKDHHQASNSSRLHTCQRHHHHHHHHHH
As to the kind of experiment: SPR screening 37C (BIAcore/ProteOn), Fab lysate over biotinylated human Dkk-1. The protocol: (§1) For screening assays to determine binding and dissociation rates of huMabJC18 variants to human Dkk1, either BIAcore or ProteOn XPR36 (BioRad, Inc.) systems were used. For the BIAcore assay, biotinylated-human Dkk1 was captured on SA (streptavidin) BIAcore chips according to the supplier's instructions. Biotinylated-human Dkk-1 protein was diluted into HBS-EP, and injected over the chip at a concentration of 5 μg/mL. Flow times across the individual chip channels were selected to achieve an antigen density of approximately 500-600 response units (RU). HBS-EP buffer was used as running buffer. Filtered recombinant E.coli cell lysates were injected at high temperature (37° C.) for 1 min at 30 ul/min, allowing a 1-5 min dissociation phase. Surfaces were regenerated with 8 mM NaOH+8% ethanol. A positive control Fab (clone 24) was injected twice at the start of the experiment, and again at the end of the assay to assess reproducibility.
(§2) For the ProteOn assay, biotinylated human Dkk-1 was injected for 1 min at serial fold dilutions empirically determined to yield different levels of immobilization (150-3000 RU) on five channels of a ProteOn NLC Neutravidin sensor chip. The sixth channel was left unmodified to serve as a reference surface. Recombinant Fabs in filtered E. coli lysates were injected at high temperature (37° C.) for 50 sec at 20 μl/min. Running buffer consisted of PBS+1 mg/ml BSA+0.005% Tween-20. The ProteOn is configured such that each injection flows over each of the five Dkk-1 channels as well as the reference channel, and six Fab samples can be injected simultaneously. Fab dissociation from the Dkk-1 surface was monitored for 20 min. The chip surface was regenerated with a 30-sec injection of 8% EtOH, 8 mM NaOH. Clone 24 Fab was used as control. Level of binding during association, and rate of dissociation for each clone was very consistent between different ligand channels.
On the technique in general: In SPR one partner is held on a chip, and binding of the other changes the refractive index at the surface.

Assay [2] addresses T1, Recombinant human Dkk-1 (R&D Systems …). Briefly: theoretical: koff / estimated kon 1e6 1/Ms (SPR screening 37C). As to the method: as §1
as §2, with “channels. […]” for “channels.”

B1: L2.1B5 (Fab, V domains shown)
VH: EVQLVESGGGLVQPGGSLRLSCAASGFTFSSYAISWVRQAPGKGLEWVASVSGWGDTYYPDSVKGRFTISRDNAKNSLYLQMNSLRAEDTAVYYCATSLENYAFDYWGQGTTVTVSS
VL: EIVLTQSPATLSLSPGERATLSCRASESVDDFGISFMNWYQQKPGQAPRLLIYAASKQGSGIPARFSGSGSGTDFTLTISSLEPEDFAVYYCQQSKEVPPTFGGGTKVEIK
notes: tested as Fab (E. coli lysate, screening mode); human kappa CL and IgG2 CH1 not included here
For B1, in assay [1], the koff stood at 0.00442 s⁻¹. Further, the dissociation constant Kd in assay [2] is 4.42 nM.

B2: L2.1B11 (Fab, V domains shown)
VH: EVQLVESGGGLVQPGGSLRLSCAASGFTFSSYAISWVRQAPGKGLEWVASVSGWFDTYYPDSVKGRFTISRDNAKNSLYLQMNSLRAEDTAVYYCATSLRNYAFDYWGQGTTVTVSS
VL: EIVLTQSPATLSLSPGERATLSCRASESVDDFGISFMNWYQQKPGQAPRLLIYAASKQGSGIPARFSGSGSGTDFTLTISSLEPEDFAVYYCQQSKEVPPTFGGGTKVEIK
notes: as for B1
For B2, the koff in assay [1] came out at 0.00207 s⁻¹. In assay [2], the Kd was 2.07 nM.

B3: L2.1E5 (Fab, V domains shown)
VH: EVQLVESGGGLVQPGGSLRLSCAASGFTFSSYAISWVRQAPGKGLEWVASVSGGGRTYYPDSVKGRFTISRDNAKNSLYLQMNSLRAEDTAVYYCATSLENYAFDYWGQGTTVTVSS
VL: EIVLTQSPATLSLSPGERATLSCRASESVDDFGISFMNWYQQKPGQAPRLLIYAASKQGSGIPARFSGSGSGTDFTLTISSLEPEDFAVYYCQQSKEVPPTFGGGTKVEIK
notes: tested as Fab (E. coli lysate, screening mode); human kappa CL and IgG2 CH1 not included here; printed changes identical to clone 24
As for B3, in assay [1], the koff was 0.0057 s⁻¹. The equilibrium dissociation constant (Kd) in assay [2] was 5.7 nM.

B4: 24 (Fab, V domains shown)
VH: EVQLVESGGGLVQPGGSLRLSCAASGFTFSSYAISWVRQAPGKGLEWVASVSGGGRTYYPDSVKGRFTISRDNAKNSLYLQMNSLRAEDTAVYYCATSLENYAFDYWGQGTTVTVSS
VL: EIVLTQSPATLSLSPGERATLSCRASESVDDFGISFMNWYQQKPGQAPRLLIYAASKQGSGIPARFSGSGSGTDFTLTISSLEPEDFAVYYCQQSKEVPPTFGGGTKVEIK
notes: positive control Fab of the screening assays; human kappa CL and IgG2 CH1 not included here; printed changes identical to L2.1E5; also called clone 24; Clone 24 Fab
With B4, in assay [1], the koff worked out at 0.0114 s⁻¹. Also, the Kd in assay [2] was 11.4 nM.

B5: 24m4 (Fab, V domains shown)
VH: EVQLVESGGGLVQPGGSLRLSCAASGFTFSSYAISWVRQAPGKGLEWVASVSGGGRTYYPDSVKGRFTISRDNAKNSLYLQMNSLRAEDTAVYYCATSLENYAFDYWGQGTTVTVSS
VL: EIVLTQSPATLSLSPGERATLSCRASESVDDFGISFLNWYQQKPGQAPRLLIYAASKQGSGIPARFSGSGSGTDFTLTISSLEPEDFAVYYCQQSKEVPPTFGGGTKVEIK
notes: as for B1
As to B5, the koff in assay [1] turned out to be 0.0118 s⁻¹. For the same molecule, the Kd in assay [2] is 11.8 nM.

B6: 2H10.33L (Fab, V domains shown)
VH: EVQLVESGGGLVQPGGSLRLSCAASGFTFSSYAISWVRQAPGKGLEWVASVSGWFDTYYPDSVKGRFTISRDNAKNSLYLQMNSLRAEDTAVYYCATSLQNYAFDYWGQGTTVTVSS
VL: EIVLTQSPATLSLSPGERATLSCRASESVDDFGISFINWYQQKPGQAPRLLIYAGSKQGSGIPARFSGSGSGTDFTLTISSLEPEDFAVYYCQQLKEVPPTFGGGTKVEIK
notes: as for B1
As to B6, in assay [1], the koff was 0.000148 s⁻¹. Further, the dissociation constant (Kd) in assay [2] is 0.148 nM.

B7: L2.1G8 (Fab, V domains shown)
VH: EVQLVESGGGLVQPGGSLRLSCAASGFTFSSYAISWVRQAPGKGLEWVASVSGWFDTYYPDSVKGRFTISRDNAKNSLYLQMNSLRAEDTAVYYCATSLENYAFDYWGQGTTVTVSS
VL: EIVLTQSPATLSLSPGERATLSCRASESVDDFGISFMNWYQQKPGQAPRLLIYAASKQGSGIPARFSGSGSGTDFTLTISSLEPEDFAVYYCQQSKEVPPTFGGGTKVEIK
notes: as for B1
On to B7, for which the off-rate (koff) in assay [1] came to 0.00255 s⁻¹. Besides, in assay [2], the dissociation constant Kd is 2.55 nM.

B8: L2.1F11 (Fab, V domains shown)
VH: EVQLVESGGGLVQPGGSLRLSCAASGFTFSSYAISWVRQAPGKGLEWVASVSGWLDTYYPDSVKGRFTISRDNAKNSLYLQMNSLRAEDTAVYYCATSLQNYAFDYWGQGTTVTVSS
VL: EIVLTQSPATLSLSPGERATLSCRASESVDDFGISFMNWYQQKPGQAPRLLIYAASKQGSGIPARFSGSGSGTDFTLTISSLEPEDFAVYYCQQSKEVPPTFGGGTKVEIK
notes: as for B1
Take B8: in assay [1], the koff was found to be 0.00212 s⁻¹. Also, the dissociation constant Kd in assay [2] is 2.12 nM.

B9: 1F10.33L (Fab, V domains shown)
VH: EVQLVESGGGLVQPGGSLRLSCAASGFTFSSYAISWVRQAPGKGLEWVASVSGGFQTYYPDSVKGRFTISRDNAKNSLYLQMNSLRAEDTAVYYCATSLDNYAFDYWGQGTTVTVSS
VL: EIVLTQSPATLSLSPGERATLSCRASESVDDFGISFINWYQQKPGQAPRLLIYAGSKQGSGIPARFSGSGSGTDFTLTISSLEPEDFAVYYCQQLKEVPPTFGGGTKVEIK
notes: human kappa CL and IgG2 CH1 not included here
Regarding B9, the koff in assay [1] was found to be 8.99e-05 s⁻¹. For the same molecule, the Kd in assay [2] was 0.09 nM.

B10: L2.1D12 (Fab, V domains shown)
VH: EVQLVESGGGLVQPGGSLRLSCAASGFTFSSYAISWVRQAPGKGLEWVASVSGWFDTYYPDSVKGRFTISRDNAKNSLYLQMNSLRAEDTAVYYCATSLQNYAFDYWGQGTTVTVSS
VL: EIVLTQSPATLSLSPGERATLSCRASESVDDFGISFMNWYQQKPGQAPRLLIYAASKQGSGIPARFSGSGSGTDFTLTISSLEPEDFAVYYCQQSKEVPPTFGGGTKVEIK
notes: as for B1
B10: in assay [1], the off-rate (koff) came to 0.00278 s⁻¹. Also, the Kd in assay [2] was 2.78 nM.

B11: L2.1G4 (Fab, V domains shown)
VH: EVQLVESGGGLVQPGGSLRLSCAASGFTFSSYAISWVRQAPGKGLEWVASVSGWFDTYYPDSVKGRFTISRDNAKNSLYLQMNSLRAEDTAVYYCATSLENYAFDKWGQGTTVTVSS
VL: EIVLTQSPATLSLSPGERATLSCRASESVDDFGISFMNWYQQKPGQAPRLLIYAASKQGSGIPARFSGSGSGTDFTLTISSLEPEDFAVYYCQQSKEVPPTFGGGTKVEIK
notes: as for B1
As to B11, the dissociation rate constant (koff) in assay [1] worked out at 0.00312 s⁻¹. The Kd in assay [2] was 3.12 nM.

B12: 2G9.33L (Fab, V domains shown)
VH: EVQLVESGGGLVQPGGSLRLSCAASGFTFSSYAISWVRQAPGKGLEWVASVSGWGDTYYPDSVKGRFTISRDNAKNSLYLQMNSLRAEDTAVYYCATSLRNYAFDYWGQGTTVTVSS
VL: EIVLTQSPATLSLSPGERATLSCRASESVDDFGISFINWYQQKPGQAPRLLIYAGSKQGSGIPARFSGSGSGTDFTLTISSLEPEDFAVYYCQQLKEVPPTFGGGTKVEIK
notes: as for B1
Consider B12, for which the koff in assay [1] was 0.000283 s⁻¹. For the same molecule, the Kd in assay [2] is 0.283 nM.

B13: 24m6 (Fab, V domains shown)
VH: EVQLVESGGGLVQPGGSLRLSCAASGFTFSSYAISWVRQAPGKGLEWVASVSGGGRTYYPDSVKGRFTISRDNAKNSLYLQMNSLRAEDTAVYYCATSLENYAFDYWGQGTTVTVSS
VL: EIVLTQSPATLSLSPGERATLSCRASESVDDFGISFMNWYQQKPGQAPRLLIYAGSKQGSGIPARFSGSGSGTDFTLTISSLEPEDFAVYYCQQSKEVPPTFGGGTKVEIK
notes: as for B1
Regarding B13, in assay [1], the dissociation rate constant (koff) came out at 0.00914 s⁻¹. Further, in assay [2], the Kd is 9.14 nM.

B14: 24m5 (Fab, V domains shown)
VH: EVQLVESGGGLVQPGGSLRLSCAASGFTFSSYAISWVRQAPGKGLEWVASVSGGGRTYYPDSVKGRFTISRDNAKNSLYLQMNSLRAEDTAVYYCATSLENYAFDYWGQGTTVTVSS
VL: EIVLTQSPATLSLSPGERATLSCRASESVDDFGISFMNWYQQKPGQAPRLLIYAGTKQGSGIPARFSGSGSGTDFTLTISSLEPEDFAVYYCQQSKEVPPTFGGGTKVEIK
notes: as for B1
Turning to B14, the off-rate (koff) in assay [1] stood at 0.00874 s⁻¹. Also, in assay [2], the equilibrium dissociation constant (Kd) is 8.74 nM.

In general, koff refers to a measure of how fast the partners let go of each other. By Kd is commonly meant a measure of binding affinity in units of concentration.

Source of the values: patent US20130071921A1 (Pfizer, published 2013).
